In publication PMC12624060, “Structures of human organellar SPFH protein complexes” (Nature Communications, 2025):

What was measured:
untagged PHB2 = target: T1, untagged PHB2 (human, UniProt Q99623 1-299); assay: cryo-EM structure; PHB1/2 complex after one-step StrepTactin purification, in 20 mM HEPES/KOH pH 7.4, 50 mM K-phosphate, 150 mM KCl, 5 mM magnesium acetate, 5 mM ATP, DDM/CHS; closed (2.4 Å) and open (3.1 Å) conformations, C11 symmetry; settings: both partners purified
T1 construct: PHB2 (prohibitin 2), human; 11 copies in the 22-subunit PHB1/2 complex; source: complex purified on StrepTactin; copies: 11
T1 sequence (Q99623 whole entry): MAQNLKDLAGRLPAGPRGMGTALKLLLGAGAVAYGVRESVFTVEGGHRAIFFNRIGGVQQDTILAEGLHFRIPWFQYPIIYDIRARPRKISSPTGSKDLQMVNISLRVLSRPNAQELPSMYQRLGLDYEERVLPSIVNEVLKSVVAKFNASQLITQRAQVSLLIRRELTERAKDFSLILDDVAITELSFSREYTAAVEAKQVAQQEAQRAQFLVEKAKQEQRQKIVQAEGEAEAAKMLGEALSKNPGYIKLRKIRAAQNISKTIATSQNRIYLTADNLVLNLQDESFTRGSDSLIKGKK

[1] = target: the molecule itself; assay: cryo-EM structure; Erlin1/2 complex after tandem affinity purification and SEC, in 50 mM HEPES/KOH pH 7.4, 150 mM NaCl, 0.02% DDM, 0.004% CHS; single-particle map at 3.0 Å, no symmetry applied in the last refinement

B1: N-terminally Strep-tagged PHB1 (stable Expi293F line) (natural protein, human)
chain: MAAKVFESIGKFGLALAVAGGVVNSALYNVDAGHRAVIFDRFRGVQDIVVGEGTHFLIPWVQKPIIFDCRSRPRNVPVITGSKDLQNVNITLRILFRPVASQLPRIFTSIGEDYDERVLPSITTEILKSVVARFDAGELITQRELVSRQVSDDLTERAATFGLILDDVSLTHLTFGKEFTEAVEAKQVAQQEAERARFVVEKAEQQKKAAIISAEGDSKAAELIANSLATAGDGLIELRKLEAAEDIAYQLSRSRNITYLPAGQSVLLQLPQ
notes: PHB1 (prohibitin 1), human; cDNA in pHAGE; 11 copies in the 22-subunit PHB1/2 complex; also called prohibitin; source: solubilised membranes (DDM/CHS) and complex purified on StrepTactin; not shown: Strep, N-terminal, kept; copies: 11
- stoichiometry N (untagged PHB2): 11 heterodimers in the complex

B2: C-terminally Flag-tagged Erlin2 (natural protein, human)
chain: MAQLGAVVAVASSFFCASLFSAVHKIEEGHIGVYYRGGALLTSTSGPGFHLMLPFITSYKSVQTTLQTDEVKNVPCGTSGGVMIYFDRIEVVNFLVPNAVYDIVKNYTADYDKALIFNKIHHELNQFCSVHTLQEVYIELFDQIDENLKLALQQDLTSMAPGLVIQAVRVTKPNIPEAIRRNYELMESEKTKLLIAAQKQKVVEKEAETERKKALIEAEKVAQVAEITYGQKVMEKETEKKISEIEDAAFLAREKAKADAECYTAMKIAEANKLKLTPEYLQLMKYKAIASNSKIYFGKDIPNMFMDSAGSVSKQFEGLADKLSFGLEDEPLETATKEN
modifications: N-linked glycan on N106
notes: Erlin2, human; cDNA in pcDNA5; 13 copies in the 26-subunit Erlin1/2 complex as modelled; also called Erlin2-Flag; source: Expi293F, co-transfected with Strep-Erlin1; complex purified (StrepTactin, anti-FLAG M2, Superose 6) in DDM/CHS; not shown: Flag, C-terminal, kept; copies: 13
- binding result [1]: binds

B3: N-terminally Strep-tagged Erlin1 (natural protein, human)
chain: MTQARVLVAAVVGLVAVLLYASIHKIEEGHLAVYYRGGALLTSPSGPGYHIMLPFITTFRSVQTTLQTDEVKNVPCGTSGGVMIYIDRIEVVNMLAPYAVFDIVRNYTADYDKTLIFNKIHHELNQFCSAHTLQEVYIELFDQIDENLKQALQKDLNLMAPGLTIQAVRVTKPKIPEAIRRNFELMEAEKTKLLIAAQKQKVVEKEAETERKKAVIEAEKIAQVAKIRFQQKVMEKETEKRISEIEDAAFLAREKAKADAEYYAAHKYATSNKHKLTPEYLELKKYQAIASNSKIYFGSNIPNMFVDSSCALKYSDIRTGRESSLPSKEALEPSGENVIQNKESTG
modifications: N-linked glycan on N108
notes: Erlin1, human; cDNA in pcDNA5; 13 copies in the 26-subunit Erlin1/2 complex as modelled; source: Expi293F, co-transfected with Erlin2-Flag; complex purified (StrepTactin, anti-FLAG M2, Superose 6) in DDM/CHS; not shown: Strep, N-terminal, kept; copies: 13
- binding result [1]: binds
